Measured values taken from publication PMC4403255 (Genes & Development, 2015).

T1: DR6-Fc fusion (UniProt Q9EPU5 42-349)
T1 sequence (looked up): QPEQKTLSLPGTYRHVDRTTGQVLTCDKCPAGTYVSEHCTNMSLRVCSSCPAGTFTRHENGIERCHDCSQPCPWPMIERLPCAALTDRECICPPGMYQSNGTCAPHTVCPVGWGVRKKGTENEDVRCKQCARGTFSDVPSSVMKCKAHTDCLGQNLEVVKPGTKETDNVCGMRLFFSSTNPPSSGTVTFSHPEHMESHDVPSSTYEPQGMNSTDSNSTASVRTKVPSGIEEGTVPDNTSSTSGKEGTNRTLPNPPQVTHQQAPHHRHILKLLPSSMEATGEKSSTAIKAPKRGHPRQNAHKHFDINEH

B1: AP-APP-E2 (amino acids 287-506), wild type (domain or fragment, UniProt P12023-2 287-506, looked up)
chain: VRVPTTAASTPDAVDKYLETPGDENEHAHFQKAKERLEAKHRERMSQVMREWEEAERQAKNLPKADKKAVIQHFQEKVESLEQEAANERQQLVETHMARVEAMLNDRRRLALENYITALQAVPPRPHHVFNMLKKYVRAEQKDRQHTLKHFEHVRMVDPKKAAQIRSQVMTHLRVIYERMNQSLSLLYNVPAVAEEIQDEVDELLQKEQNYSDDVLANMI

Columns and labels:
[1] = target: Full extracellular domain of mouse amyloid precursor protein (mouse) (UniProt P12023); assay: SEC
DR6-Fc fusion = target: T1, DR6-Fc fusion; assay: BLI

Molecule	stoichiometry N [1]	Kd (DR6-Fc fusion)
Full extracellular domain of mouse amyloid precursor protein (from UniProt P12023-2 18-596) (domain or fragment)	2	–
B1	–	85 nM
